These results are taken from patent publication US20150258211.

The data set relates to GST-GFP fusion protein expressed from pJB-HTS-GFP (GST, hexa-histidine tag, thrombin cleavage site LVPRGS, GFP) [GST: P08515].
Chain of GST-GFP fusion protein expressed from pJB-HTS-GFP (GST, hexa-histidine tag, thrombin cleavage site LVPRGS, GFP) [GST: P08515] (P08515 whole entry, looked up, the tested form may be a part): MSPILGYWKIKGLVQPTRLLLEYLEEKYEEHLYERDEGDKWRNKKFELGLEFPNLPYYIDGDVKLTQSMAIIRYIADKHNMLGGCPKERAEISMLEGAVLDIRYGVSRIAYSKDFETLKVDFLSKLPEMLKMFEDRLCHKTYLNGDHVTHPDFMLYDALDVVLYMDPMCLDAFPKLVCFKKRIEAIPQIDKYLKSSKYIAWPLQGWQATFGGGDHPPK

Consider thrombin, for which the “Michaelis-Menten constant (Km) of thrombin cleavage of GST-GFP associated with PEGDA-GSH microspheres, SDS-PAGE densitometry” value is listed as “significantly increased from approximately 0.18 µM to 0.30 µM” and the “Michaelis-Menten constant (Km) of thrombin cleavage of free GST-GFP, SDS-PAGE densitometry” value was “significantly increased from approximately 0.18 µM to 0.30 µM”.
